Consider four molecules from patent publication US20050244862A1.

Holding throughout (assay): cell-based or functional assay
Assay [1] addresses T1, ETA endothelin receptor.
T1 sequence (P25101 whole entry, species assumed, looked up): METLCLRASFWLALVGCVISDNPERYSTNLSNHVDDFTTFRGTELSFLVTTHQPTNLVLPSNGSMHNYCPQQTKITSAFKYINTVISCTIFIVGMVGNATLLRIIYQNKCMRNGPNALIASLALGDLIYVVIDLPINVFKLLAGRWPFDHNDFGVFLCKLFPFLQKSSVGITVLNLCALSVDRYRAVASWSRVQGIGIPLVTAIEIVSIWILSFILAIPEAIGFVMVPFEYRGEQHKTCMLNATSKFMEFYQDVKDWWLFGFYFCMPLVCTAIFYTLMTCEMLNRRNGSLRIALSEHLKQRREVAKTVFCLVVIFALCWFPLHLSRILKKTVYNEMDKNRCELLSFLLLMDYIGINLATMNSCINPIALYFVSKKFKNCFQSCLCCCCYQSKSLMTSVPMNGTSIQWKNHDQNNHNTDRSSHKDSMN

The target of assay [2] is T2, NK3 tachykinin receptor (UniProt P29371).
T2 sequence (looked up): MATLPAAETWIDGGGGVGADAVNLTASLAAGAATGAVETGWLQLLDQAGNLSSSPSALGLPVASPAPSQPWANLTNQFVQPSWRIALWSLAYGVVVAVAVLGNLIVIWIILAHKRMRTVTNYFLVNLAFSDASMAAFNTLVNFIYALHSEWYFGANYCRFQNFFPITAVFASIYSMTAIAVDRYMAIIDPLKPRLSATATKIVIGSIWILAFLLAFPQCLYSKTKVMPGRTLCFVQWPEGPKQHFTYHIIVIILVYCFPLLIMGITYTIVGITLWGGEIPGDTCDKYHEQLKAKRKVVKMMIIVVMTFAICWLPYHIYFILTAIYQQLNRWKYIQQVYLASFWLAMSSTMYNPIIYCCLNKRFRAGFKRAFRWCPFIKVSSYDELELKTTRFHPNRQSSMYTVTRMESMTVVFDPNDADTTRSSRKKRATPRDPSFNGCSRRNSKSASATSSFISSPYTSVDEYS

Assay [3] addresses NK1 tachykinin receptor (UniProt P25103).
The target in assay [4] is NK2 tachykinin receptor (UniProt P21452).
For assay [5], the target named is ETB endothelin receptor.
The target in assay [6] is trk C receptor subtype.
Assay [7] has as its target human trk A receptor (human) (UniProt P04629).

Some results are limits rather than exact numbers.

NK1 tachykinin receptor, sequence (P25103 whole entry): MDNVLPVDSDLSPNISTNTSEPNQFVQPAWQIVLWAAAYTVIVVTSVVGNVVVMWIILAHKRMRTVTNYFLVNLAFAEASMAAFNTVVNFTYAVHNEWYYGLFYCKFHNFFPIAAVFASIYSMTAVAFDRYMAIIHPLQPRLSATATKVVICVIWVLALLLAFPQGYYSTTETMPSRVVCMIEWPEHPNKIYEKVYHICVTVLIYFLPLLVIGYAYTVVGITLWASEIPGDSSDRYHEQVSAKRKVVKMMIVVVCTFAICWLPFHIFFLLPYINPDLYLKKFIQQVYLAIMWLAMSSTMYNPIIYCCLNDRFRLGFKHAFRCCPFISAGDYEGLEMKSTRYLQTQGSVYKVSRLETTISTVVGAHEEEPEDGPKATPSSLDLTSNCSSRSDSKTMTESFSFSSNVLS
ETB endothelin receptor, sequence (P24530 whole entry): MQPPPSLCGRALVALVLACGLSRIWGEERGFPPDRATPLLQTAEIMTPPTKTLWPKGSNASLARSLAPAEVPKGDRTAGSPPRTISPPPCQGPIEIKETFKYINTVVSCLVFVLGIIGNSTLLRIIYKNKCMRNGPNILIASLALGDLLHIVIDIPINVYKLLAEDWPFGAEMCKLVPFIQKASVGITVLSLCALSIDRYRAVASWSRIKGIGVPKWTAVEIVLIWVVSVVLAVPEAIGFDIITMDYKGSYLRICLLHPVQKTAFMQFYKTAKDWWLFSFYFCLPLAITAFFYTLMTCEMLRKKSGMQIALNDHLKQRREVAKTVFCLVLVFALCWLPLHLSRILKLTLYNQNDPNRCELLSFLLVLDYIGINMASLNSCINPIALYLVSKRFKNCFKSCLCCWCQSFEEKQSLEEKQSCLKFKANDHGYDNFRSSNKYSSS
NK2 tachykinin receptor, sequence (P21452 whole entry): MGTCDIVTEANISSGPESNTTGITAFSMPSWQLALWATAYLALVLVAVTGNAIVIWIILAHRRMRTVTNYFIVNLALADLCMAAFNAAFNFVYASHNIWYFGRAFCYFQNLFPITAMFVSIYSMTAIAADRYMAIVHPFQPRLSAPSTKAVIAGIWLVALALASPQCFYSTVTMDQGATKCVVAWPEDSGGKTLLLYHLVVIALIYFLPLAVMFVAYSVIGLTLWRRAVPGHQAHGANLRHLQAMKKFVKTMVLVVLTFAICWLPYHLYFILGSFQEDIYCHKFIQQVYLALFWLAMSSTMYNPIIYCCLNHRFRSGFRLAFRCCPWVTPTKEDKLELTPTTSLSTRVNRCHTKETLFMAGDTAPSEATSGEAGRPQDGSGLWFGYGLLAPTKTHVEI
human trk A receptor (human), sequence (P04629 33-796): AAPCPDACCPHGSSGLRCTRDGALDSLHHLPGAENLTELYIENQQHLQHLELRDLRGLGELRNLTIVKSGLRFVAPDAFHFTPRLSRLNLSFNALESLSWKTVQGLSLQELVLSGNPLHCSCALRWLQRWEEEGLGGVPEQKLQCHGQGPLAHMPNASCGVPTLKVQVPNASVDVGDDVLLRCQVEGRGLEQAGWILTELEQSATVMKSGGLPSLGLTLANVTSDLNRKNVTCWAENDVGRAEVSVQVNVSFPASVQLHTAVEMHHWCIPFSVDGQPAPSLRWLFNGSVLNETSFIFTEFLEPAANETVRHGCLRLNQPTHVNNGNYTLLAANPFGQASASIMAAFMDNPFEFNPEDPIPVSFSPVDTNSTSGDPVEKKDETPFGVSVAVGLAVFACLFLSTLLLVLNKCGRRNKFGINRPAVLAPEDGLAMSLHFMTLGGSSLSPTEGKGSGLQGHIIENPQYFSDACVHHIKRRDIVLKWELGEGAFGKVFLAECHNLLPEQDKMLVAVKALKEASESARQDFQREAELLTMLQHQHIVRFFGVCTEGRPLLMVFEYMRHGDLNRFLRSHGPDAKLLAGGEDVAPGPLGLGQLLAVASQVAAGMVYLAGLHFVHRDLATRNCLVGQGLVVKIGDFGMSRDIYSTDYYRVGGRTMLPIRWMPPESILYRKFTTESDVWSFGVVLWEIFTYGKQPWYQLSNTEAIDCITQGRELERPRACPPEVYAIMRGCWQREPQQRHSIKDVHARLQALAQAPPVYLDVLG

B1: ET-2 (peptide, UniProt P20800 49-69, looked up)
peptide: CSCSSWLDKECVYFCHLDIIW
In assay [1], B1 returned an EC50, amplification assay (β-galactosidase), Single Receptor Format of 16 nM.

B2: neurokinin B (peptide, UniProt Q9UHF0 81-90, looked up)
peptide: DMHDFFVGLM
B2: the EC50, amplification assay (β-galactosidase), Single Receptor Format turned out to be 100 nM in assay [2], 99 nM in assay [3] and 1.3 nM in assay [4].

B3: ET-3 (peptide, UniProt P14138 97-117, looked up)
peptide: CTCFTYKDKECVYYCHLDIIW
As for B3, the EC50, amplification assay (β-galactosidase), Single Receptor Format stood at 2.1 nM in assay [1] and 0.14 nM in assay [5].

B4: neutrotrophic factor NT3 (ligand, UniProt P20783 139-257, looked up)
chain: YAEHKSHRGEYSVCDSESLWVTDKSSAIDIRGHQVTVLGEIKTGNSPVKQYFYETRCKEARPVKNGCRGIDDKHWNSQCKTSQTYVRALTSENNKLVGWRWIRIDTSCVCALSRKIGRT
For B4, the values for the EC50, amplification assay (β-galactosidase), Single Receptor Format in assay [6] and in assay [7] were 2.4 ng/mL and > 1000 ng/mL, respectively.
